Measurements: article PMC7612262 (Structure (London, England : 1993), 2006)

Target: the molecule itself
Assay: crystal structure

Protein | binding result
MS2 coat protein Asn87Ser mutant (natural protein, bacteriophage MS2) ASNFTQFVLVDNGGTGDVTVAPSNFANGVAEWISSNSRSQAYKVTCSVRQSSAQNRKYTIKVEVPKVATQTVGGVELPVAAWRSYLSMELTIPIFATNSDCELIVKAMQGLLKDGNPIPSAIAANSGIY | binds
MS2 coat protein Asn87Ser, Glu89Lys double mutant (natural protein, bacteriophage MS2) ASNFTQFVLVDNGGTGDVTVAPSNFANGVAEWISSNSRSQAYKVTCSVRQSSAQNRKYTIKVEVPKVATQTVGGVELPVAAWRSYLSMKLTIPIFATNSDCELIVKAMQGLLKDGNPIPSAIAANSGIY | binds
